B1: LINE1-full (parent)
chain: UACGUAGGUGGUUUUCCCCUGAUAGUGCUAAGGGGGCCUGGAAGUUUGGACUGGGCAGAGCUCAACACAGCGUGGCAAAGUGGCUGUGGCUAGACUGCCUCUCUGGAUUCCUCGUCACUCAGCAGGGCAUCUCUGAGAGAAAUGCC

The variants in this data set derive from B1. Nature of the data set: self-cleavage, relative activity (ratio to wild type); higher = more cleavage; in vitro, sequencing; the parent is a self-cleaving ribozyme.
Regarding UACGUAGGUGGUUUUCCCCUGAUAGUGCUAAGGGGGCCUGGAAGUUCGGACUGGGCAGAGCUCAACACAGCGUGGCAAAGUGGCUGUAGCUAGACUGCCUCUCUGGAUUCCUCGUCACUCAGCAGGGCAUCUCUGAGAGAAAUGCC [U47C G88A], the self-cleavage was found to be 0.07.

For the variant UACGUAGGUGGUUUUCCCCUGAUAGUGCUAAGGGGGCCUGGAAGUUCGGACUGGGCAGAGCUCAACACAGCGUGGCAAAGUGGCUGUGACUAGACUGCCUCUCUGGAUUCCUCGUCACUCAGCAGGGCAUCUCUGAGAGAAAUGCC [U47C G89A], the self-cleavage stood at 0.02. The figure for UACGUAGGUGGUUUUCCCCUGAUAGUGCUAAGGGGGCCUGGAAGUUCGGACUGGGCAGAGCUCAACACAGCGUGGCAAAGUGGCUGUGGCUAGACUGCCUCUCUGGAUUCCUCGUCACUCAGCAGGGCAUCUCAGAGAGAAAUGCC [U47C U134A] is 1.34; for UACGUAGGUGGUUUUCCCCUGAUAGUGCUAAGGGGGCCUGGAAGUUCGGACUGGGCAGAGCUCAACACAGCAUGGCAAAGUGGCUGUGGCUAGACUGCCUCUCUGGAUUCCUCGUCACUCAGCAGGGCAUCUCUGAGAGAAAUGCC [U47C G72A] it is 0.94; for UACGUAGGUGGUUUUCCCCUGAUAGUGCUAAGGGGGCCUGGAAGUUCGGACUGGGCAGAGCUCAACACAGCGUGGCAAAGUGGCUGUGGCUAGACUGCCUCUCUGGAUUCCUCGCCACUCAGCAGGGCAUCUCUGAGAGAAAUGCC [U47C U115C] it is 2.06. Consider UACGUAGGUGGUUUUCCCCUGAUAGUGCUAAGGGGGCCUGGAAGUUCGGACUGGGCAGAGCUCAACACAGCGCGGCAAAGUGGCUGUGGCUAGACUGCCUCUCUGGAUUCCUCGUCACUCAGCAGGGCAUCUCUGAGAGAAAUGCC [U47C U73C], for which the self-cleavage turned out to be 1.55. The figure for UACGUAGGUGGUUUUCCCCUGAUAGUGCUAAGGGGGCCUGGAAGUUCGGACUGGGCAGAGCUCAACACAGCGAGGCAAAGUGGCUGUGGCUAGACUGCCUCUCUGGAUUCCUCGUCACUCAGCAGGGCAUCUCUGAGAGAAAUGCC [U47C U73A] is 2.06; for UACGUAGGUGGUUUUCCCCUGAUAGUGCUAAGGGGGCCUGGAAGUUCGGACUGGGCAGAGCUCAACACAGCGGGGCAAAGUGGCUGUGGCUAGACUGCCUCUCUGGAUUCCUCGUCACUCAGCAGGGCAUCUCUGAGAGAAAUGCC [U47C U73G] it is 1.38; for UACGUAGGUGGUUUUCCCCUGAUAGUGCUAAGGGGGCCUGGAAGUUCGGACUGGGCAGAGCACAACACAGCGUGGCAAAGUGGCUGUGGCUAGACUGCCUCUCUGGAUUCCUCGUCACUCAGCAGGGCAUCUCUGAGAGAAAUGCC [U47C U62A] it is 0.04. For UACGUAGGUGGUUUUCCCCUGAUAGUGCUAAGGGGGCCUGGAAGUUCGGACUGGGCAGAGCCCAACACAGCGUGGCAAAGUGGCUGUGGCUAGACUGCCUCUCUGGAUUCCUCGUCACUCAGCAGGGCAUCUCUGAGAGAAAUGCC [U47C U62C], the self-cleavage was 0.12. Regarding UACGUAGGUGGUUUUCCCCUGAUAGUGCUAAGGGGGCCUGGAAGUUCGGACUGGGCAGAGCUCAACACAGCGUGGCAAAGUGGCUGUGGCUAGACUGCCUCUCUGGAGUCCUCGUCACUCAGCAGGGCAUCUCUGAGAGAAAUGCC [U47C U108G], the self-cleavage came out at 1.41. Next, UACGUAGGUGGUUUUCCCCUGAUAGUGCUAAGGGGGCCUGGAAGUUCGGACUGGGCAGAGCUCAACACAGCGUGGCAAAGUGGCUGUGGCUAGACUGCCUCUCUGGACUCCUCGUCACUCAGCAGGGCAUCUCUGAGAGAAAUGCC [U47C U108C]: 1.62. For UACGUAGGUGGUUUUCCCCUGAUAGUGCUAAGGGGGCCUGGAAGUUCGGACUGGGCAGAGCUCAACACAGCGUGGCAAAGUGGCUGUGGCUAGACUGCCUCUCUGGAUUCCUCGUCACACAGCAGGGCAUCUCUGAGAGAAAUGCC [U47C U119A], the self-cleavage amounted to 1.86. With UACGUAGGUGGUUUUCCCCUGAUAGUGCUAAGGGGGCCUGGAAGUUCGGACUGGGCAGAGCUCAACACAGCGUGGCAAAGUGGCUGUGGCUAUACUGCCUCUCUGGAUUCCUCGUCACUCAGCAGGGCAUCUCUGAGAGAAAUGCC [U47C G93U], the self-cleavage amounted to 0.04. As for UACGUAGGUGGUUUUCCCCUGAUAGUGCUAAGGGGGCCUGGAAGUUCGGACUGGGCAGAGCUCAACACAGCGUGGCAAAGUGGCUGUGGCUAGACUGCCUCUCUGGAUUCCUCGUCACUCAGCAGGGCACCUCUGAGAGAAAUGCC [U47C U130C], the self-cleavage was determined as 1.63. As to UACGUAGGUGGUUUUCCCCUGAUAGUGCUAAGGGGGCCUGGAAGUUCGGACUGGGCAGAGCUCAACACAGCGUGGCAAAGUGGCUGUGGCUAGACUGCCUCUCUGGAUUCCUCGUCACUCAGCAGGGCAACUCUGAGAGAAAUGCC [U47C U130A], the self-cleavage amounted to 1.31. Take UACGUAGGUGGUUUUCCCCUGAUAGUGCUAAGGGGGCCUGGAAGUUCGGACUGGGCAGAACUCAACACAGCGUGGCAAAGUGGCUGUGGCUAGACUGCCUCUCUGGAUUCCUCGUCACUCAGCAGGGCAUCUCUGAGAGAAAUGCC [U47C G60A]: the self-cleavage amounted to 0.03. Regarding UACGUAGGUGGUUUUCCCCUGAUAGUGCUAAGGGGGCCUGGAAGUUCGGACUGGGCAGAGCUCAACACAGCGUGGCAAAGUGGCUGUGGCUAGACUGCCUCUCUAGAUUCCUCGUCACUCAGCAGGGCAUCUCUGAGAGAAAUGCC [U47C G105A], the self-cleavage turned out to be 1.45. On to UACGUAGGUGGUUUUCCCCUGAUAGUGCUAAGGGGGCCUGGAAGUUCGGACUGGGCAGAGCUCAACACAGCGUGGCAAAGUGGCUGUGGCUAGACUGCCUCUCUGGAUUCCUCGUCACUCAGCAGGACAUCUCUGAGAGAAAUGCC [U47C G127A], for which the self-cleavage was 1.31. Regarding UACGUAGGUGGUUUUCCCCUGAUAGUGCUAAGGGGGCCUGGAAGUUCGGACUGGGCAGAGCUCAACACAGCGUGGCAAAGUGGCUGUGGCUAGACUGCCUCUCUGGAUUCCUCGUCACUCAGCAGGCCAUCUCUGAGAGAAAUGCC [U47C G127C], the self-cleavage was found to be 1.23. On to UACGUAGGUGGUUUUCCCCUGAUAGUGCUAAGGGGGCCUGGAAGUUCGGACUGGGCAGAGCUCAACACAGCGUGGCAAAGUGGCUGUGGCUAGACUGCCUCUCUGGAUUCCUCGUCACUCAGCAGGGCAUCCCUGAGAGAAAUGCC [U47C U132C], for which the self-cleavage amounted to 1.62. Next, UACGUAGGUGGUUUUCCCCUGAUAGUGCUAAGGGGGCCUGGAAGUUCGGACUGGGCAGAGCUCAACACAGCGUGGCAAAGUGGCUGUGGCUAGACUGCCUCUCUGGAUUCCUCGUCACUCAGCAGGGCAUCACUGAGAGAAAUGCC [U47C U132A]: 0.93; UACGUAGGUGGUUUUCCCCUGAUAGUGCUAAGGGGGCCUGGAAGUUCGGACUGGGCAGAGCUCAACACAGCGUGGCAAAGUGGCUGUGGCUAGACUGCCUCUCUGGAUUCCUCGUCACUCAGCAGGGCAUCUCUGAGAGAAACGCC [U47C U143C]: 1.57; UACGUAGGUGGUUUUCCCCUGAUAGUGCUAAGGGGGCCUGGAAGUUCGGACUGGGCAGAGCUCAACACAGCGUGGCAAAGUGGCUGUGGCUAGACUGCCUCUCUGGAUACCUCGUCACUCAGCAGGGCAUCUCUGAGAGAAAUGCC [U47C U109A]: 1.6. The figure for UACGUAGGUGGUUUUCCCCUGAUAGUGCUAAGGGGGCCUGGAAGUUCGGACUGGGCAGAGCUCAACACAGCGUGGCAAAGUGGCUGUGGCUAGACUGCCUCUCUGGAUCCCUCGUCACUCAGCAGGGCAUCUCUGAGAGAAAUGCC [U47C U109C] is 1.61. On to UACGUAGGUGGUUUUCCCCUGAUAGUGCUAAGGGGGCCUGGAAGUUCGGACUGGGCAGAGCUCAACACAGCGUGCCAAAGUGGCUGUGGCUAGACUGCCUCUCUGGAUUCCUCGUCACUCAGCAGGGCAUCUCUGAGAGAAAUGCC [U47C G75C], for which the self-cleavage stood at 0.97. With UACGUAGGUGGUUUUCCCCUGAUAGUGCUAAGGGGGCCUGGAAGUUCGGACUGGGCAGAGCUCAACACAGCGUGGCAAAGUGGCUGUGGCUAGACUGCCUCACUGGAUUCCUCGUCACUCAGCAGGGCAUCUCUGAGAGAAAUGCC [U47C U102A], the self-cleavage came out at 1.84.

Regarding UACGUAGGUGGUUUUCCCCUGAUAGUGCUAAGGGGGCCUGGAAGUUCGGACUGGGCAGAGCUCAACACAGCGUGGCAAAGCGGCUGUGGCUAGACUGCCUCUCUGGAUUCCUCGUCACUCAGCAGGGCAUCUCUGAGAGAAAUGCC [U47C U81C], the self-cleavage was 1.51.

With UACGUAGGUGGUUUUCCCCUGAUAGUGCUAAGGGGGCCUGGAAGUUCGGACUGGGCAGAGCUCAACACAGCGUGGCAAAGUGGCUGUGGCUAGACUGCCUCUCUGGAUUCCUCAUCACUCAGCAGGGCAUCUCUGAGAGAAAUGCC [U47C G114A], the self-cleavage was 1.66. In the case of UACGUAGGUGGUUUUCCCCUGAUAGUGCUAAGGGGGCCUGGAAGUUCGGACUGGGCAGAGCUCAACACAGCGUGGCAAAGUGGCUGUGGCUAGACUGCCACUCUGGAUUCCUCGUCACUCAGCAGGGCAUCUCUGAGAGAAAUGCC [U47C U100A], the self-cleavage was determined as 1.51. Take UACGUAGGUGGUUUUCCCCUGAUAGUGCUAAGGGGGCCUGGAAGUUGGGACUGGGCAGAGCUCACCACAGCGUGGCAAAGUGGCUGUGGCUAGACUGCCUCUCUGGAUUCCUCGUCACUCAGCAGGGCAUCUCUGAGAGAAAUGCC [U47G A65C]: the self-cleavage was 0. In the case of UACGUAGGUGGUUUUCCCCUGAUAGUGCUAAGGGGGCCUGGAAGUUCGGACUGGGCAGAGCUCAACACAGCGUGGCAAAGUGGCUGUGGCUAGACUGCCUCUCUGGAUUCCUCGUCACUCAGCAGAGCAUCUCUGAGAGAAAUGCC [U47C G126A], the self-cleavage came out at 1.84. Turning to UACGUAGGUGGUUUUCCCCUGAUAGUGCUAAGGGGGCCUGGAAGUUCGGACUGGGCAGAGCUCAACACAGCGUGGCAAAGUGGCUGAGGCUAGACUGCCUCUCUGGAUUCCUCGUCACUCAGCAGGGCAUCUCUGAGAGAAAUGCC [U47C U87A], the self-cleavage came to 0.12.

UACGUAGGUGGUUUUCCCCUGAUAGUGCUAAGGGGGCCUGGAAGUUCGGACAGGGCAGAGCUCAACACAGCGUGGCAAAGUGGCUGUGGCUAGACUGCCUCUCUGGAUUCCUCGUCACUCAGCAGGGCAUCUCUGAGAGAAAUGCC [U47C U52A]: the self-cleavage turned out to be 1.72.

For UACGUAGGUGGUUUUCCCCUGAUAGUGCUAAGGGGGCCUGGAAGUUCGGACUGGGCAGAGCUCAACACAGCGUGGCAAAGUGGCUGUGGCUAGACCGCCUCUCUGGAUUCCUCGUCACUCAGCAGGGCAUCUCUGAGAGAAAUGCC [U47C U96C], the self-cleavage stood at 0.25. The figure for UACGUAGGUGGUUUUCCCCUGAUAGUGCUAAGGGGGCCUGGAAGUUCGGACUGGGCAGAGCUCAACACAGCGUGGCAAAGUGGCUGUGGCUAGACGGCCUCUCUGGAUUCCUCGUCACUCAGCAGGGCAUCUCUGAGAGAAAUGCC [U47C U96G] is 0.05. As for UACGUAGGUGGUUUUCCCCUGAUAGUGCUAAGGGGGCCUGGAAGUUCGGACUGGGCAGAGCUCAACACAGCGUGGCAAAGUGGCGGUGGCUAGACUGCCUCUCUGGAUUCCUCGUCACUCAGCAGGGCAUCUCUGAGAGAAAUGCC [U47C U85G], the self-cleavage was determined as 0.32. Next, UACGUAGGUGGUUUUCCCCUGAUAGUGCUAAGGGGGCCUGGAAGUUGGGACUGGGCAGAGCUCAACACAGCGUGGCGAAGUGGCUGUGGCUAGACUGCCUCUCUGGAUUCCUCGUCACUCAGCAGGGCAUCUCUGAGAGAAAUGCC [U47G A77G]: 1.09; UACGUAGGUGGUUUUCCCCUGAUAGUGCUAAGGGGGCCUGGAAGUUCGGACUAGGCAGAGCUCAACACAGCGUGGCAAAGUGGCUGUGGCUAGACUGCCUCUCUGGAUUCCUCGUCACUCAGCAGGGCAUCUCUGAGAGAAAUGCC [U47C G53A]: 1.78.

Source of the values: the RNAGym collection of RNA variant scans (doi:10.7554/elife.90254).
